Laboratory results: paper PMC8764033, “Single-molecule analysis of specificity and multivalency in binding of short linear substrate motifs to the APC/C” (Nature Communications, 2022)

What was measured:
[1] = target: Cdc20-activated yeast APC/C with the mutant Apc10 subunit Apc10-4A (S. cerevisiae | S. cerevisiae (endogenous in yeast)) (UniProt P26309); assay: single-molecule off-rate (SMOR) assay, TIRF microscopy; target held on PEG/PEG-biotin glass by NeutrAvidin and biotinylated anti-Strep-Tag II antibody (tag on the activator); dye-labeled ligand (peptide no greater than 1 nM) in buffer C + BSA (20 mM HEPES pH 7.5, 150 mM KCl, 10% glycerol, 0.05% Tween-20, 1 mM DTT) with oxygen scavengers; mean dwell time from an exponential distribution; dwell times below 100 ms noted as single-frame (SF)
[2] = target: Cdh1-activated yeast APC/C with the mutant Apc10 subunit Apc10-4A (S. cerevisiae | S. cerevisiae (endogenous in yeast)) (UniProt P53197); assay: as above
[3] = target: Cdh1-activated yeast APC/C (S. cerevisiae | S. cerevisiae (endogenous in yeast)) (UniProt P53197); assay: fluorescence polarisation + other: single-molecule off-rate (SMOR) assay; inferred constants: kon from the KD of anisotropy and the koff of SMOR; KD for APC/C^Cdh1 from the dwell time with the kon of Cdh1 alone assumed
[4] = target: Cdh1-activated yeast APC/C (S. cerevisiae | S. cerevisiae (endogenous in yeast)) (UniProt P53197); assay: single-molecule off-rate (SMOR) assay, TIRF microscopy; target held on PEG/PEG-biotin glass by NeutrAvidin and biotinylated anti-Strep-Tag II antibody (tag on the activator); dye-labeled ligand (peptide no greater than 1 nM) in buffer C + BSA (20 mM HEPES pH 7.5, 150 mM KCl, 10% glycerol, 0.05% Tween-20, 1 mM DTT) with oxygen scavengers; mean dwell time from an exponential distribution; dwell times below 100 ms noted as single-frame (SF)
[5] = target: Cdc20-activated yeast APC/C (S. cerevisiae | S. cerevisiae (endogenous in yeast)) (UniProt P26309); assay: as above

Hsl1 fragment (amino acids 667–872) with C-terminal HaloTag, wild-type degrons, sequence (P34244 667-872): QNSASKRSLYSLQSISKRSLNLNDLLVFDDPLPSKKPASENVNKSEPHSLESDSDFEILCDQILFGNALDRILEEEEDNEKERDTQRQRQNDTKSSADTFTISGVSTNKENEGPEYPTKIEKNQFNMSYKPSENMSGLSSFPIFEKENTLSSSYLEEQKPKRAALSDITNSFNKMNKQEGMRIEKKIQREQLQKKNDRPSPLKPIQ
Cdh1-activated yeast APC/C with the mutant Apc10 subunit Apc10-4A (S. cerevisiae | S. cerevisiae (endogenous in yeast)), sequence (P53197 whole entry, looked up, change not shown, tested part not stated): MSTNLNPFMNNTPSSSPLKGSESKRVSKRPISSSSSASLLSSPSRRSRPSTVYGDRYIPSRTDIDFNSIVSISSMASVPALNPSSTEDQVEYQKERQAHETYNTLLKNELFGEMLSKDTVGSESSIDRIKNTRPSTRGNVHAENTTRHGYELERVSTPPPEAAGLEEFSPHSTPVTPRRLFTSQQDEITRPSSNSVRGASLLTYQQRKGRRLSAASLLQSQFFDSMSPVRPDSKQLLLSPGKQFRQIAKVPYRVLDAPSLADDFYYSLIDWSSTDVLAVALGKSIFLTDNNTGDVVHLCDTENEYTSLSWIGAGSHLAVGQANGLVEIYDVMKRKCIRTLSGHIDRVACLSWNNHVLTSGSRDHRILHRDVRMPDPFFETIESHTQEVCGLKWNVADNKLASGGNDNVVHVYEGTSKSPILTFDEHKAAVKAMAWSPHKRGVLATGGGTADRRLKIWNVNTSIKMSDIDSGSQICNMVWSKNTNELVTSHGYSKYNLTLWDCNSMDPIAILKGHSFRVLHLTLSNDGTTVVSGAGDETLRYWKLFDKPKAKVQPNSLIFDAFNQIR
Cdc20-activated yeast APC/C with the mutant Apc10 subunit Apc10-4A (S. cerevisiae | S. cerevisiae (endogenous in yeast)), sequence (P26309 whole entry, looked up, change not shown, tested part not stated): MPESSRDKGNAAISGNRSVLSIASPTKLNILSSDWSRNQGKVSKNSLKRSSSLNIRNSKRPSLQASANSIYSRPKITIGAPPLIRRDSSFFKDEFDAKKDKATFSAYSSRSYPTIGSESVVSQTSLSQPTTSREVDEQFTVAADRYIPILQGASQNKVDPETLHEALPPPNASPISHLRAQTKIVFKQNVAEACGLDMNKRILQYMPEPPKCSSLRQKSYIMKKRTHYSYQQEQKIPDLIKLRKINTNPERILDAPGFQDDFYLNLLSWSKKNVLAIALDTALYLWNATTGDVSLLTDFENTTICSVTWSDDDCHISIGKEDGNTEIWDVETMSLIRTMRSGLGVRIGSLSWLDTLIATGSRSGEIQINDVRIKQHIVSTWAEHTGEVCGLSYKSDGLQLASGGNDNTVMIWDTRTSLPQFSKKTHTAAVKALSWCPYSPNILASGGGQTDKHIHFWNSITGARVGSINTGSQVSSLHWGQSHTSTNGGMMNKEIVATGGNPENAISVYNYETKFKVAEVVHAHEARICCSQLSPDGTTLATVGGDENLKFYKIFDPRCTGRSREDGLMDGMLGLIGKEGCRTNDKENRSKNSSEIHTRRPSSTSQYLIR

mean dwell time [1] [s]	mean dwell time [2] [s]	Kd [3] [nM]	mean dwell time [4] [s]	mean dwell time [5] [s]	Substance
0.152	0.375	–	–	–	Cy5-labeled Hsl1 D box peptide
0.449	75.9	4	321	0.518	Hsl1 fragment (amino acids 667–872) with C-terminal HaloTag, wild-type degrons (from UniProt P34244 667-872) (domain or fragment)
